{"source": "paper PMC8509707", "biological_target": "Recombinant His-tagged C-terminal ^ECFTO domain (CD-FTO) (human)", "test": "SEC; ^BTCaM (7.6 µM) and/or CD-FTO (15.2 µM), 10 min at 4 °C, SEC650 column in SEC1 buffer (50 mM MES pH 6.5, 150 mM NaCl, 10% glycerol, 1 mM 2-OG, 0.5 mM MnCl2, 0.5 mM CaCl2)"}
{"substance": "Recombinant His-tagged C-terminal ^ECFTO domain (CD-FTO) (domain or fragment)", "values": [{"measurement": "stoichiometry N", "value": 2}]}
